From the DeepSol protein solubility set

Experiment: soluble on expression in E. coli; label from the status in PepcDB or PDB records
In the case of “MGSSHHHHHHSSGRENLYFQGMNDSIHGGLRVCQSTPLVQLQDRGRFGCRHLGVTQGGALDWLSMGWANWLLGNPLDAAVIEIALGGFVADCRADGWLALAGGDLGATLDGQPLPAWGAFAVRGGQRLAFAHPRQGARAYLAAPGGFAGERQLGSLATVAREGLGGPRADGKALAAGDSLGWLADGARPRALPLPSERIMDCTGEARLELILGAQIGDFPAMSLFDAFNGDWQVDTRADRMGVRLLGPRLECRQQSMISEGIALGAVQVPPDGQPIVLLNDRQTIGGYPRLGALAPLALARLAQCLPGQRVRLLPTVQEAAHREHRRLLAAWDA”, the “soluble on expression in E. coli” value is reported as “soluble”.
For “MGTFATTYEKIQDFNWLTRFLHAGRYRKLLEVLETVQKDVGNRKVRILDIGCGPGTAVGHILERFDVEYVGIDYDPIFIDAARNRYGKNENCRFIVGDATDERLYETIQADIVIALETLEHIHLNRTVRVIEHVCTIIRPRIFLVTVPVEVGPAVWIKNWGSALMGYNRQSGNLKETFWAGLYRMDRVPAHHTSHQGFDWRCLAQLIRVNAPLREIRSLPFSFVPRLLSPNVALIAEPVKSTIDLANDDPEAWKINHGQTAFQRPHIVDETDAARHAKSLATWSMRLKGLLGMALATMPFAWHRWSYISISPGEAQSSHFLLTIDKHLLPPHQSIEGDTILLAAQAIVQRVSDASYLLT”, the “soluble on expression in E. coli” value was “not soluble”.
For “MGTVMDVLKGDNRFSMLVAAIQSAGLTETLNREGVYTVFAPTNEAFRALPPRERSRLLGDAKELANILKYHIGDEILVSGGIGALVRLKSLQGDKLEVSLKNNVVSVNKEPVAEPDIMATNGVVHVITNVLQP”, the “soluble on expression in E. coli” value was “soluble”.
For “MGVETLNKVFKIAKKFYTDIRYYSFQLACIHLGETFSRYTKFNLADKYYLKKDKIVLNYLRTRYTNSPKQDVYGGVPKIYQPIWVFWYQGEEQMPKLVSACLKSVRNNANGHEVILISKENMNNYIEIPDVIRDRVESKKISMAQYSDIIRMCLLAEYGGLWIDATVLVTQLIPQYIFELPLFTIKNSPNQEDPLYFISVSHLRWTTYVMGGEPNNALFTFVRDLLIEYNSVENALIDYLLIDYAIELAIEKNSSISDDMIKIPINNQLKEEFVHRLFSVYPDCKTKELLQSGTIFFKLSYKKVAPKVIEKNNYQLLVDGDLCQAYNMGNLEHHHHHH”, the “soluble on expression in E. coli” value was “not soluble”.
For “MGVPIGDLVPRKEIDLENLYGKKIAIDALNAIYQFLSTIRQEDGTPLMDSKGRITSHLSGLFYRTINLMEAGIKPAYVFDGKPPEFKRKELEKRREAREEAELKWKEALAKGNLEEARKYAQRATKVNEMLIEDAKKLLQLMGIPIIQAPSEGEAQAAYMASKGDVYASASQDYDSLLFGAPRLIRNLTITGKRKMPGKDVYVEIKPELVVLDEVLKELKITREKLIELAILVGTDYNPGGVKGIGPKKALEIVRYSRDPLAKFQRQSDVDLYAIKEFFLNPPVTNEYSLSWKEPDEEGILKFLCDEHNFSEERVKNGIERLKKAIKAGRQSTLESWFVKKKP”, the “soluble on expression in E. coli” value was “soluble”.
With “MGVVLARGAFRERSMLTLPDFPLPDARGRFGPYGGRYVPETLIPALEELEAAYREAKKDPAFLEELDHYLRQFAGRPTPLYHAKRLSEYWGGAQVFLKREDLLHTGAHKINNTLGQALLARRMGKRRVIAETGAGQHGVSVATVAALFGLECVVYMGEEDVRRQALNVFRMKLLGAEVRPVAAGSRTLKDATNEAIRDWITNVRTTFYILGSVVGPHPYPMMVRDFQSVIGEEVKRQSLELFGRLPDALIAAVGGGSNAIGLFAPFAYLPEGRPKLIGVEAAGEGLSTGRHAASIGAGKRGVLHGSYMYLLYDHDGQITPAHSVSAGLDYPGVGPEHSYYADAGVAEYASVTDEEALEGFKLLARLEGIIPALESAHAIAYAAKVVPEMDKDQVVVINLSGRGDKDVTEVMRLLGGEL” the “soluble on expression in E. coli” value was “soluble”.
For “MGWFGFGGNPTDTPSSSAEVSAAPIDLSAGMNFSVPGFDAPAPEPSVPDHSPFPAAPVLALDQLKSAGVGVSRQMTPYVQMDPSMFASQQPQYIMPEGGVAGKGKFEFALGHIGWAVGGAFGVGCARGALGELMNPETRKMVGKPWMTRMVNATMKHGSGFAQPSGAIVFMYSALEIGLRSVRAEDELNGFGAGALTGAIYRSPHGLKASGVGALVGLGIAAAWTLSSTDSRQRLSEMFSNH”, the “soluble on expression in E. coli” value was “soluble”.
With “MGYAVLHLEKAKGTDSRMSAHIERTVHPKNADRTRTHLNRELVQFPEGVRNRTQAIAQRIETAGIRRKVSANQVKAIRILLTGSNKDMKQMEAEGRIEDWCNDSLKWIRETYGEQNLVSAVLHMDEKTPHIHATVIPIMTGERRKAGQEEQNGKKKYRKKNPQDVRLCADDVMARHRLKHYQDTYAQAMNKYGLQRGVDGSLAKHISTMQYYKQLVEQQDSLQENIENLLGLEEEAMKKLKQVKGEINVQKMKGAAVNATTAIADGVSSLFGGSKVKRLEAENENLKRNIVNLQKQVQAEQREQTKMENRHSSEINRVDRSYRQKIAEYDNRLELIDTYFPIVKELIPIAEQCREVGFTEELTRRIVSLQPVEFKGRLYSKEYKEKFRTEHSTATVERTPQEKGKFRLCIDGIPILDWFRKKFQEIKEKLGLNTPVENKQRKGLKILEHHHHHH” the “soluble on expression in E. coli” value was “not soluble”.
In the case of “MGYTKAEILKALKGENVKFLRLQITDILGVVKNVEVPESQFEKALDGEIMFDGSSIEGFTRIEESDMLLRPDYNTFVILPDLVEDPKRGRVARLICDVYYPDGRPFEGDPRYVLKRQIERLKKLGFDNLYAGPEPEFFLFLRTPEGLPTTETHDRAGYFDLAPIDKGEEARRDMVNALVAMGFEIEAAHHEVAPGQHEIDFKYADALTTADNIATFKWVVKRIALNHGLHATFLPKPIRGINGSGMHTHLSLFKDGENAFYDPNAEYQLSQTALHFIAGLLEHAAGMVAVTNPLVNSYKRLTPGYEAPTNIAWSASNRSAMIRIPARRGVGTRAELRMPDPSCNPYLALAVMAAAGADGIERKLLPPPPIQRNIYQMTVRERRKHKIRELPGTLREALEALRKDPVIREALGEHVYTHFLQAKQMEWDDYRVTVHQWELDRYLATY”, the “soluble on expression in E. coli” value is reported as “soluble”.
With “MGYVEIIEQPKQRGMRFRYKCEGRSAGSIPGERSTDTTKTHPTIKINGYTGPGTVRISLVTKDPPHRPHPHELVGKDCRDGFYEAELCPDRCIHSFQNLGIQCVKKRDLEQAISQRIQTNNNPFQVPIEEQRGDYDLNAVRLCFQVTVRDPSGRPLRLPPVLSHPIFDNRAPNTAELKICRVNRNSGSCLGGDEIFLLCDKVQKEDIEVYFTGPGWEARGSFSQADVHRQVAIVFRTPPYADPSLQAPVRVSMQLRRPSDRELSEPMEFQYLPDGSLSSGSSLSSPSAGAAPRVLFGEWLLGEISSGCYEGLQWLDEARTCFRVPWKHFARKDLSEADARIFKAWAVARGRWPPSSRGGGPPPEAETAERAGWKTNFRCALRSTRRFVMLRDNSGDPADQHKVYALSGSLSSDSSLSSPSALSPKPRILPWLVSQLDLGQLEGVAWVNKSRTRFRIPWKHGLRQDAQQEDFGIFQAWAEATGAYVPGRDKPDLPTWKRNFRSALNRKEGLRLAEDRSKDPHDPHKIYEFVNGLEHHHHHH” the “soluble on expression in E. coli” value was “soluble”.
With “MHCDLPCGVYDPAQARIEAESVKAVQEKMAGNDDPHFQTRATVIKEQRAELAKHHVSVLWSDYFKPPHFEKYPELHQLVNDTLKAMSAAKGSKDPATGQKALDYIAQIDKIFWETKKA” the “soluble on expression in E. coli” value was “soluble”.
For “MHDASHNSLFKTKWMNDYLVDWLCARPIWNDVHKYRTHHTRHHAKTSTPEDPDLTLVAGFPTTKTSLTRKFLRDLVGITGFKFTVGRILMDAEVLKWTVANDLTWLPRENRQWYDYPKVFLKNSSKAIIANASIFGILWAFGRPELYLLWPLAYLTPFPLFIRIRSMAEHAGTQISNNALTNTRTTKAGWLARAFVAPIRVNYHMEHHLMAAVPFFKLPKMHQMLRERGHVPEPPTYVQVIHMLSSHQTNQHPLNSVEQGELEHHHHHH”, the “soluble on expression in E. coli” value was “soluble”.
For “MHEMRELAQGSLKEMRTLIWQLRPAGLEKGLLPALKQYGESLGLKIREQVTGVRDLPRVVEEALWRIGQEALNNVSKHANVREATIYFKVTEKNVSLEIVDQGNGFVEKNIKEKKSLGMTTMRERVELVGGTIKIVSDKKRTSVKVNVPL”, the “soluble on expression in E. coli” value was “not soluble”.
With “MHFTPALKPGKLLKRYKRFLADVQLEDGSEITVHCPNTGSMRNCLFPGETLWFSTSSNTKRKYAHTWELMTTPTGALIGIHSGNANALVEEALNKGIITELTGYDSLRREVKYGDENSRIDILLECAQKTACYIEVKSCTLQENGQGYFPDAVSLRGQKHLRELMHMASLGHRAVLLFVVQHTDIMSVAPAAHIDPEYANLLKKSVLSGVEVLAYRCEISPSEIHLAQSCPVRV” the “soluble on expression in E. coli” value was “soluble”.
With “MHGKDPFSDFREFINTMESRVQELGKAYGVEHLAGPQGFAVRYLFENQDKEIFIKDIEKKLSISKSVASNLVKRMEKNGFVELVTSDKDKRYKYVHLTDLGKKKAQDVGHFREAIHGQLLDGISKEDAETAFRVFHQIRKNLEKNKE” the “soluble on expression in E. coli” value was “not soluble”.
For “MHGSKLPLTVWFWAAYLMATHSNGISARQMGRHLGLGSYKSAWLLCAKLRGAMVNLARALLSGLVEIDETQISYRTKDNPVAGGGGRSPEGKMQVVVAVEVIDNAPGRLRLGVIDDASSASLHPFIKASVASGATLKTDGWSAYPGAPGYKHEPHVVGKMAAHIVLPWVHRVISNLKTWALGVYHGLRRQHLQSYLNEFVFRFNCRRTPHAAFRTLLGIGLAIQPVTYNMLIAPEAQGLEHHHHHH”, the “soluble on expression in E. coli” value was “not soluble”.
For “MHGSQKDTTFTKIFVGGLPYHTTDASLRKYFEGFGDIEEAVVITDRQTGKSRGYGFVTMADRAAAERACKDPNPIIDGRKANVNLAYLGAKPRSLQTGFAIGV”, the “soluble on expression in E. coli” value was “soluble”.
In the case of “MHHHHHHGHNSNLQDILAANAKWASQMNNIQPTLFPDHNAKGQSPHTLFIGCSDSRYNENCLGVLPGEVFTWKNVANICHSEDLTLKATLEFAIICLKVNKVIICGHTDCGGIKTCLTNQREALPKVNCSHLYKYLDDIDTMYHEESQNLIHLKTQREKSHYLSHCNVKRQFNRIIENPTVQTAVQNGELQVYGLLYNVEDGLLQTVSTYTKVTPK”, the “soluble on expression in E. coli” value is reported as “soluble”.
With “MHHHHHHSSGRENLYFQGMWDQRLVRLALLQHLRAFYGIKVKGVRGQCDRRRHETAATEIGGKIFGVPFNALPHSAVPEYGHIPSFLVDACTSLEDHIHTEGLFRKSGSVIRLKALKNKVDHGEGCLSSAPPCDIAGLLKQFFRELPEPILPADLHEALLKAQQLGTEEKNKATLLLSCLLADHTVHVLRYFFNFLRNVSLRSSENKMDSSNLAVIFAPNLLQTSEGHEKMSSNTEKKLRLQAAVVQTLIDYASDIGRVPDFILEKIPAML” the “soluble on expression in E. coli” value was “soluble”.
In the case of “MHHHHHHSSGVDLGTENLYFQSMDLRVQELIKLICNVQAMEEMMMEMKYNTKKAPLGKLTVAQIKAGYQSLKKIEDCIRAGQHGRALMEACNEFYTRIPHDFGLRTPPLIRTQKELSEKIQLLEALGDIEIAIKLVKTELQSPEHPLDQHYRNLHCALRPLDHESYEFKVISQYLQSTHAPTHSDYTMTLLDLFEVEKDGEKEAFREDLHNRMLLWHGSRMSNWVGILSHGLRIAHPEAPITGYMFGKGIYFADMSSKSANYCFASRLKNTGLLLLSEVALGQCNELLEANPKAEGLLQGKHSTKGLGKMAPSSAHFVTLNGSTVPLGPASDTGILNPDGYTLNYNEYIVYNPNQVRMRYLLKVQFNF”, the “soluble on expression in E. coli” value is reported as “soluble”.
For “MHHHHHHSSGVDLGTENLYFQSMKLIRVENFEAYFKKQQADSNCGFAEEYEDLKLVGISQPKYAAELAENRGKNRYNNVLPYDISRVKLSVQTHSTDDYINANYMPGYHSKKDFIATQGPLPNTLKDFWRMVWEKNVYAIIMLTKCVEQGRTKCEEYWPSKQAQDYGDITVAMTSEIVLPEWTIRDFTVKNIQTSESHPLRQFHFTSAPDHGVPDTTDLLINFRYLVRDYMKQSPPESPILVHCSAGVGRTGTFIAIDRLIYQIENENTVDVYGIVYDLRMHRPLMVQTEDQYVFLNQCVLDIVRSQKDSKVDLIY”, the “soluble on expression in E. coli” value was “soluble”.
